From US20200270325A1 (Merck Sharp & Dohme, published 2020)
Numbered stars: 1 amine (or outer) side, 2 acyl side, 3 side chain; on linkers, the order of the positions; unused ones are H or OH. Square brackets hold non-standard residues; d marks the D form. Side chains are listed from the residue outwards. Ends that are not written are not given here. * marks the point of attachment. C18 diacid = O=C(O)CCCCCCCCCCCCCCCCC(=O)*; γGlu = O=C(O)[C@H](CCC(=O)[*:2])N[*:1]; Met(O2) = CS(=O)(=O)CC[C@H](N)C(=O)O; αMeD = C[C@](N)(CC(=O)O)C(=O)O; Nle = CCCC[C@H](N)C(=O)O; AEEA = NCCOCCOCC(=O)O; Aib = CC(C)(N)C(=O)O

B1: TP737 (peptide)
peptide: H[Aib]QGTFTSDYSKYLD[Aib]RAAQDFVK([AEEA-AEEA-γGlu-C18 diacid])WL[Met(O2)]DT-OH
modifications: N-terminus assumed
SMILES: CC(C)C[C@H](NC(=O)[C@H](Cc1c[nH]c2ccccc12)NC(=O)[C@H](CCCCNC(=O)COCCOCCNC(=O)COCCOCCNC(=O)CC[C@H](NC(=O)CCCCCCCCCCCCCCCCC(=O)O)C(=O)O)NC(=O)[C@@H](NC(=O)[C@H](Cc1ccccc1)NC(=O)[C@H](CC(=O)O)NC(=O)[C@H](CCC(N)=O)NC(=O)[C@H](C)NC(=O)[C@H](C)NC(=O)[C@H](CCCNC(=N)N)NC(=O)C(C)(C)NC(=O)[C@H](CC(=O)O)NC(=O)[C@H](CC(C)C)NC(=O)[C@H](Cc1ccc(O)cc1)NC(=O)[C@H](CCCCN)NC(=O)[C@H](CO)NC(=O)[C@H](Cc1ccc(O)cc1)NC(=O)[C@H](CC(=O)O)NC(=O)[C@H](CO)NC(=O)[C@@H](NC(=O)[C@H](Cc1ccccc1)NC(=O)[C@@H](NC(=O)CNC(=O)[C@H](CCC(N)=O)NC(=O)C(C)(C)NC(=O)[C@@H](N)Cc1c[nH]cn1)[C@@H](C)O)[C@@H](C)O)C(C)C)C(=O)N[C@@H](CCS(C)(=O)=O)C(=O)N[C@@H](CC(=O)O)C(=O)N[C@H](C(=O)O)[C@@H](C)O
B2: TP704 (peptide)
peptide: H[Aib]QGTFTSDYSKYLDARAAK([AEEA-AEEA-γGlu-C18 diacid])EFVQWL[Met(O2)]DT-NH2
modifications: N-terminus assumed
SMILES: CC(C)C[C@H](NC(=O)[C@H](Cc1ccc(O)cc1)NC(=O)[C@H](CCCCN)NC(=O)[C@H](CO)NC(=O)[C@H](Cc1ccc(O)cc1)NC(=O)[C@H](CC(=O)O)NC(=O)[C@H](CO)NC(=O)[C@@H](NC(=O)[C@H](Cc1ccccc1)NC(=O)[C@@H](NC(=O)CNC(=O)[C@H](CCC(N)=O)NC(=O)C(C)(C)NC(=O)[C@@H](N)Cc1c[nH]cn1)[C@@H](C)O)[C@@H](C)O)C(=O)N[C@@H](CC(=O)O)C(=O)N[C@@H](C)C(=O)N[C@@H](CCCNC(=N)N)C(=O)N[C@@H](C)C(=O)N[C@@H](C)C(=O)N[C@@H](CCCCNC(=O)COCCOCCNC(=O)COCCOCCNC(=O)CC[C@H](NC(=O)CCCCCCCCCCCCCCCCC(=O)O)C(=O)O)C(=O)N[C@@H](CCC(=O)O)C(=O)N[C@@H](Cc1ccccc1)C(=O)N[C@H](C(=O)N[C@@H](CCC(N)=O)C(=O)N[C@@H](Cc1c[nH]c2ccccc12)C(=O)N[C@@H](CC(C)C)C(=O)N[C@@H](CCS(C)(=O)=O)C(=O)N[C@@H](CC(=O)O)C(=O)N[C@H](C(N)=O)[C@@H](C)O)C(C)C
B3: TP713 (peptide)
peptide: H[Aib]QGTFTSDYSKYLDARAAK([AEEA-AEEA-γGlu-C18 diacid])EFVQWL[Met(O2)][αMeD]
modifications: not fully specified (C-terminus); printed as HUQGTFTSDYSKYLDARAAK(PEG2PEG2γEC18-OH)EFVQWL2αMDT-NH2
B4: TP705 (peptide)
peptide: H[Aib]QGTFTSDYSKYLDARAAK([AEEA-AEEA-γGlu-C18 diacid])DFVEWL[Met(O2)]KT-NH2
modifications: N-terminus assumed
SMILES: CC(C)C[C@H](NC(=O)[C@H](Cc1ccc(O)cc1)NC(=O)[C@H](CCCCN)NC(=O)[C@H](CO)NC(=O)[C@H](Cc1ccc(O)cc1)NC(=O)[C@H](CC(=O)O)NC(=O)[C@H](CO)NC(=O)[C@@H](NC(=O)[C@H](Cc1ccccc1)NC(=O)[C@@H](NC(=O)CNC(=O)[C@H](CCC(N)=O)NC(=O)C(C)(C)NC(=O)[C@@H](N)Cc1c[nH]cn1)[C@@H](C)O)[C@@H](C)O)C(=O)N[C@@H](CC(=O)O)C(=O)N[C@@H](C)C(=O)N[C@@H](CCCNC(=N)N)C(=O)N[C@@H](C)C(=O)N[C@@H](C)C(=O)N[C@@H](CCCCNC(=O)COCCOCCNC(=O)COCCOCCNC(=O)CC[C@H](NC(=O)CCCCCCCCCCCCCCCCC(=O)O)C(=O)O)C(=O)N[C@@H](CC(=O)O)C(=O)N[C@@H](Cc1ccccc1)C(=O)N[C@H](C(=O)N[C@@H](CCC(=O)O)C(=O)N[C@@H](Cc1c[nH]c2ccccc12)C(=O)N[C@@H](CC(C)C)C(=O)N[C@@H](CCS(C)(=O)=O)C(=O)N[C@@H](CCCCN)C(=O)N[C@H](C(N)=O)[C@@H](C)O)C(C)C
B5: TP702 (peptide)
peptide: H[Aib]QGTFTSDYSKYLDARAAQEFVK([AEEA-AEEA-γGlu-C18 diacid])WL[Met(O2)]DT-NH2
modifications: N-terminus assumed
SMILES: CC(C)C[C@H](NC(=O)[C@H](Cc1ccc(O)cc1)NC(=O)[C@H](CCCCN)NC(=O)[C@H](CO)NC(=O)[C@H](Cc1ccc(O)cc1)NC(=O)[C@H](CC(=O)O)NC(=O)[C@H](CO)NC(=O)[C@@H](NC(=O)[C@H](Cc1ccccc1)NC(=O)[C@@H](NC(=O)CNC(=O)[C@H](CCC(N)=O)NC(=O)C(C)(C)NC(=O)[C@@H](N)Cc1c[nH]cn1)[C@@H](C)O)[C@@H](C)O)C(=O)N[C@@H](CC(=O)O)C(=O)N[C@@H](C)C(=O)N[C@@H](CCCNC(=N)N)C(=O)N[C@@H](C)C(=O)N[C@@H](C)C(=O)N[C@@H](CCC(N)=O)C(=O)N[C@@H](CCC(=O)O)C(=O)N[C@@H](Cc1ccccc1)C(=O)N[C@H](C(=O)N[C@@H](CCCCNC(=O)COCCOCCNC(=O)COCCOCCNC(=O)CC[C@H](NC(=O)CCCCCCCCCCCCCCCCC(=O)O)C(=O)O)C(=O)N[C@@H](Cc1c[nH]c2ccccc12)C(=O)N[C@@H](CC(C)C)C(=O)N[C@@H](CCS(C)(=O)=O)C(=O)N[C@@H](CC(=O)O)C(=O)N[C@H](C(N)=O)[C@@H](C)O)C(C)C
B6: TP736 (peptide)
peptide: H[Aib]QGTFTSDYSKYLDARAAK([AEEA-AEEA-γGlu-C18 diacid])DFVQWL[Met(O2)]DT-OH
modifications: N-terminus assumed
SMILES: CC(C)C[C@H](NC(=O)[C@H](Cc1ccc(O)cc1)NC(=O)[C@H](CCCCN)NC(=O)[C@H](CO)NC(=O)[C@H](Cc1ccc(O)cc1)NC(=O)[C@H](CC(=O)O)NC(=O)[C@H](CO)NC(=O)[C@@H](NC(=O)[C@H](Cc1ccccc1)NC(=O)[C@@H](NC(=O)CNC(=O)[C@H](CCC(N)=O)NC(=O)C(C)(C)NC(=O)[C@@H](N)Cc1c[nH]cn1)[C@@H](C)O)[C@@H](C)O)C(=O)N[C@@H](CC(=O)O)C(=O)N[C@@H](C)C(=O)N[C@@H](CCCNC(=N)N)C(=O)N[C@@H](C)C(=O)N[C@@H](C)C(=O)N[C@@H](CCCCNC(=O)COCCOCCNC(=O)COCCOCCNC(=O)CC[C@H](NC(=O)CCCCCCCCCCCCCCCCC(=O)O)C(=O)O)C(=O)N[C@@H](CC(=O)O)C(=O)N[C@@H](Cc1ccccc1)C(=O)N[C@H](C(=O)N[C@@H](CCC(N)=O)C(=O)N[C@@H](Cc1c[nH]c2ccccc12)C(=O)N[C@@H](CC(C)C)C(=O)N[C@@H](CCS(C)(=O)=O)C(=O)N[C@@H](CC(=O)O)C(=O)N[C@H](C(=O)O)[C@@H](C)O)C(C)C
B7: TP735 (peptide)
peptide: H[Aib]QGTFTSDYSKYLDARAAK([AEEA-AEEA-γGlu-C18 diacid])DFVQWL[Met(O2)][αMeD]T-OH
modifications: N-terminus assumed
SMILES: CC(C)C[C@H](NC(=O)[C@H](Cc1ccc(O)cc1)NC(=O)[C@H](CCCCN)NC(=O)[C@H](CO)NC(=O)[C@H](Cc1ccc(O)cc1)NC(=O)[C@H](CC(=O)O)NC(=O)[C@H](CO)NC(=O)[C@@H](NC(=O)[C@H](Cc1ccccc1)NC(=O)[C@@H](NC(=O)CNC(=O)[C@H](CCC(N)=O)NC(=O)C(C)(C)NC(=O)[C@@H](N)Cc1c[nH]cn1)[C@@H](C)O)[C@@H](C)O)C(=O)N[C@@H](CC(=O)O)C(=O)N[C@@H](C)C(=O)N[C@@H](CCCNC(=N)N)C(=O)N[C@@H](C)C(=O)N[C@@H](C)C(=O)N[C@@H](CCCCNC(=O)COCCOCCNC(=O)COCCOCCNC(=O)CC[C@H](NC(=O)CCCCCCCCCCCCCCCCC(=O)O)C(=O)O)C(=O)N[C@@H](CC(=O)O)C(=O)N[C@@H](Cc1ccccc1)C(=O)N[C@H](C(=O)N[C@@H](CCC(N)=O)C(=O)N[C@@H](Cc1c[nH]c2ccccc12)C(=O)N[C@@H](CC(C)C)C(=O)N[C@@H](CCS(C)(=O)=O)C(=O)N[C@@](C)(CC(=O)O)C(=O)N[C@H](C(=O)O)[C@@H](C)O)C(C)C
B8: TP703 (peptide)
peptide: H[Aib]QGTFTSEYSKKLDARAAK([AEEA-AEEA-γGlu-C18 diacid])DFVQWL[Met(O2)]DT-NH2
modifications: N-terminus assumed
SMILES: CC(C)C[C@H](NC(=O)[C@H](CCCCN)NC(=O)[C@H](CCCCN)NC(=O)[C@H](CO)NC(=O)[C@H](Cc1ccc(O)cc1)NC(=O)[C@H](CCC(=O)O)NC(=O)[C@H](CO)NC(=O)[C@@H](NC(=O)[C@H](Cc1ccccc1)NC(=O)[C@@H](NC(=O)CNC(=O)[C@H](CCC(N)=O)NC(=O)C(C)(C)NC(=O)[C@@H](N)Cc1c[nH]cn1)[C@@H](C)O)[C@@H](C)O)C(=O)N[C@@H](CC(=O)O)C(=O)N[C@@H](C)C(=O)N[C@@H](CCCNC(=N)N)C(=O)N[C@@H](C)C(=O)N[C@@H](C)C(=O)N[C@@H](CCCCNC(=O)COCCOCCNC(=O)COCCOCCNC(=O)CC[C@H](NC(=O)CCCCCCCCCCCCCCCCC(=O)O)C(=O)O)C(=O)N[C@@H](CC(=O)O)C(=O)N[C@@H](Cc1ccccc1)C(=O)N[C@H](C(=O)N[C@@H](CCC(N)=O)C(=O)N[C@@H](Cc1c[nH]c2ccccc12)C(=O)N[C@@H](CC(C)C)C(=O)N[C@@H](CCS(C)(=O)=O)C(=O)N[C@@H](CC(=O)O)C(=O)N[C@H](C(N)=O)[C@@H](C)O)C(C)C

Columns and labels:
[1] = molecular target: human Glucagon receptor (GCGR) (human, UniProt P47871 26-477); assay: cell-based or functional assay
human Glucagon receptor (GCGR), sequence (P47871 26-477): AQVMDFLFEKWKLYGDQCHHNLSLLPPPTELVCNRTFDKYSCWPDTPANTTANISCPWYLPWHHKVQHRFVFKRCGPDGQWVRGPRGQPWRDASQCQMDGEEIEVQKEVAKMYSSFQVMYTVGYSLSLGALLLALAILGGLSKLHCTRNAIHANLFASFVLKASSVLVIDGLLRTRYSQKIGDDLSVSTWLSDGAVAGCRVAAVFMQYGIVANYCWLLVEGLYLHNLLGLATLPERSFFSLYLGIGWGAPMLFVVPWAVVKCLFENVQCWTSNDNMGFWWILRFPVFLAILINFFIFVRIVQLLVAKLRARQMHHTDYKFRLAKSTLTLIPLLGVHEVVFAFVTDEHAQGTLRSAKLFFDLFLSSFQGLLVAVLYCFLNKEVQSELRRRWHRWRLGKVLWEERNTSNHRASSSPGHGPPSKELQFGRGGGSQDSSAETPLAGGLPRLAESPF

[2] = molecular target: human GLP-1 receptor (GLP1R) (human, UniProt P43220 24-463); assay: cell-based or functional assay

Binder | GCGR EC50 human [1] | GLP1R EC50 human [2]
B1 | 1.56 nM | 2.67 nM
B2 | 0.27 nM | 0.37 nM
H[Aib]QGTFTSDYSKYLDARAA[Nle]([1,2,3‑triazole‑5-AEEA-AEEA-γGlu-C18 diacid])DFVQWL[Met(O2)]DT-NH2 [TP712] | 0.25 nM | 0.45 nM
H[Aib]QGTFTSDYSKYLD[Aib]RAAK([AEEA-AEEA-γGlu-C20‑OH])DFVQWL[Met(O2)][αMeD]T-NH2 [TP588] | 2.67 nM | 2.92 nM
B3 | 1.52 nM | 0.71 nM
B4 | 1.48 nM | 0.41 nM
B5 | 0.35 nM | 0.27 nM
B6 | 3.19 nM | 1.15 nM
B7 | 0.895 nM | 0.648 nM
B8 | > 19.8 nM | > 19.8 nM
